Assay results published in patent publication US20080044417A1 (MacroGenics, published 2008).

T1: FcγRIIB (CD32B) on Daudi cells (human, UniProt P31994 43-310)
T1 construct: whole, on cells; also called human B cell tumor line
T1 sequence (looked up): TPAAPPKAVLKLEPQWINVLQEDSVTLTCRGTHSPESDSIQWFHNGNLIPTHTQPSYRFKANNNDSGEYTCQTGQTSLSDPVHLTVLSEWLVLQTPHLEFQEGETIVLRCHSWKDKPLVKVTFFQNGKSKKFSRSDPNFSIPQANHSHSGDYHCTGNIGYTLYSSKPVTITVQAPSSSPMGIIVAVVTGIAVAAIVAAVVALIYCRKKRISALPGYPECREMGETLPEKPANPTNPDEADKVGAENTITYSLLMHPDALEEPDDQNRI

T2: soluble FcγIIA (UniProt P12318 34-217)
T2 construct: also called dimeric soluble FcγRIIa-Fc; FcγRIIA; not shown: the p
T2 sequence (looked up): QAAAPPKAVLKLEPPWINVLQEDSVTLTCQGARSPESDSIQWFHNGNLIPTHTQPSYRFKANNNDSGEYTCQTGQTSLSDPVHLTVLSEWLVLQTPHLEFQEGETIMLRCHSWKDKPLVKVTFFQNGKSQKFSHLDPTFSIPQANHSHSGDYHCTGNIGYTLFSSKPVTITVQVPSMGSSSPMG


Legend:
[1] = target: T1, FcγRIIB (CD32B) on Daudi cells; test: FACS on Daudi cells, primary antibody 0.5 ug/ml, PE anti-human IgG Fc secondary
[2] = target: T1, FcγRIIB (CD32B) on Daudi cells; test: FACS on Daudi cells, primary antibody 0.5 µg/ml, PE anti-human IgG Fc secondary
Description: (§1) Protocol for FACS analysis. Approximately 10⁶ Daudi cells were used for each antibody staining. Cells were washed once with PBS. Primary antibodies (Ch2B6, Hu2B6Hc/ch2B6Lc, human IgG1) were diluted into 0.5, 0.1, 0.02 μg/mL in PBS/1% BSA and 100 μL of diluted antibodies was transferred to the cells. After 30 mins incubation at 4° C., cells were washed once with 1 mL PBS/1% BSA. PE conjugated F(ab′)₂ fragment of goat anti human IgG Fc specific (Jackson ImmunoReseach, Inc.) was used as secondary antibody at 1:1000 dilution. After 30 mins incubation at 4° C., cells were washed once with 1 mL PBS/1% BSA. The cells were then resuspended in 500 μL of PBS/1% BSA and subjected to be FACS analysis.
(§2) Transfections of HEK-293 cells were performed using the following combinations: hu2B6HC/hu2B6LC; hu2B6HC/hu2B6LC(N50Y); hu2B6HC/hu2B6LC(N50Y,V51A); ch2B6HC/ch2B6LC. After three days in culture the amount of human IgG expressed was quantitated by an ELISA assay, using the method described above. Binding to dimeric soluble FcγRIIb-Fc was determined by ELISA assay. […] FACS analysis was then performed to measure the binding of the mAbs to Daudi cells (Table 8).

[3] = target: T1, FcγRIIB (CD32B) on Daudi cells; test: FACS on Daudi cells, primary antibody 0.02 ug/ml, PE anti-human IgG Fc secondary
[4] = target: T1, FcγRIIB (CD32B) on Daudi cells; test: FACS on Daudi cells, primary antibody 0.1 µg/ml, PE anti-human IgG Fc secondary
Description: as §1, §2

[5] = target: T1, FcγRIIB (CD32B) on Daudi cells; test: FACS on Daudi cells, primary antibody 0.02 µg/ml, PE anti-human IgG Fc secondary
Description: as §1, §2

[6] = target: T1, FcγRIIB (CD32B) on Daudi cells; test: FACS on Daudi cells, primary antibody 0.1 ug/ml, PE anti-human IgG Fc secondary
soluble FcγIIA = target: T2, soluble FcγIIA; test: ELISA, 100 ng/well soluble FcγIIA coated
Description: Protocol for ELISA assay: 100 ng/well of soluble FcγIIA in carbonate buffer was coated on 96-well Maxisorp plates at 4° C. overnight. A serial of two-fold dilution of conditioned medium of Ch2B6; hu2B6HC/hu2B6LC; hu2B6HC/hu2B6LC(N50Y); hu2B6HC/hu2B6LC(N50Y,V51A); and purified IV.3 starting from 25 ng/well was added to the each well. The plate was incubated at room temperature for 1 hour. The binding was detected by HRP conjugated F(ab′)2 goat anti human IgG F(ab′)2 specific secondary antibody for Ch2B6 and all hu2B6 samples and HRP conjugated F(ab′)2 goat anti mouse IgG (H+L) secondary antibody for IV.3. After incubation with the secondary antibody for approximately 45 minutes, the plate was developed using a TMB substrate. After 5 mins incubation, the reaction was stopped by 1% H₂SO₄. The OD₄₅₀ nm was ready by SOFTmax program. Between each step, the plates were washed 3 times with PBS/0.1% Tween 20. The plates were blocked by 0.5% BSA in PBS/0.1% Tween 20 for 30 mins at room temperature before adding the serial diluted antibodies.

Row | Molecule | Mean Fluorescence [1] | Mean Fluorescence [2] | Mean Fluorescence ([2]; record 2) | Mean Fluorescence [3] | Mean Fluorescence [4] | Mean Fluorescence ([4]; record 2) | Mean Fluorescence [5] | Mean Fluorescence ([5]; record 2) | Mean Fluorescence [6] | binding result (soluble FcγIIA)
1 | ch2B6 monoclonal antibody (ch2B6HC/ch2B6LC) | 552 | 193 | 647 | 168 | 141 | 512 | 45.6 | 173 | 515 | –
2 | hu2B6HC/hu2B6LC(N50Y) (antibody, V domains shown, Human IgG; HEK-293 conditioned medium; also called Hu2B6 N50Y; Hu2B6N50Y) VH: QVQLVQSGAEVKKPGASVKVSCKASGYTFTNYWIHWVRQAPGQGLEWMGVIDPSDTYPNYNKKFKGRVTMTTDTSTSTAYMELRSLRSDDTAVYYCARNGDSDYYSGMDYWGQGTTVTVSS VL: EIVLTQSPDFQSVTPKEKVTITCRTSQSIGTNIHWYQQKPDQSPKLLIKYVSESISGVPSRFSGSGSGTDFTLTINSLEAEDAATYYCQQSNTWPFTFGGGTKVEIK | – | 191 | – | – | 135 | – | 40.1 | – | – | no binding

The remaining lines, values ahead:

Row | Mean Fluorescence [1] | Mean Fluorescence [2] | Mean Fluorescence ([2]; record 2) | Mean Fluorescence [3] | Mean Fluorescence [4] | Mean Fluorescence ([4]; record 2) | Mean Fluorescence [5] | Mean Fluorescence ([5]; record 2) | Mean Fluorescence [6] | binding result (soluble FcγIIA) | Molecule
3 | 6.07 | 9.49 | 1.23 | – | – | – | – | – | – | – | Human IgG1 (antibody)
4 | – | 202 | – | – | 174 | – | 58.6 | – | – | no binding | hu2B6HC/hu2B6LC monoclonal antibody (antibody, V domains shown, Human IgG (appropriate constant region segments); HEK-293 conditioned medium; also called humanized 2B6) VH: QVQLVQSGAEVKKPGASVKVSCKASGYTFTNYWIHWVRQAPGQGLEWMGVIDPSDTYPNYNKKFKGRVTMTTDTSTSTAYMELRSLRSDDTAVYYCARNGDSDYYSGMDYWGQGTTVTVSS VL: EIVLTQSPDFQSVTPKEKVTITCRTSQSIGTNIHWYQQKPDQSPKLLIKNVSESISGVPSRFSGSGSGTDFTLTINSLEAEDAATYYCQQSNTWPFTFGGGTKVEIK
5 | – | 167 | – | – | 134 | – | 46 | – | – | no binding | hu2B6HC/hu2B6LC(N50Y,V51A) (antibody, V domains shown, Human IgG; HEK-293 conditioned medium; also called Hu2B6N50Y, V51A; Hu2B6N50Y,V51A) VH: QVQLVQSGAEVKKPGASVKVSCKASGYTFTNYWIHWVRQAPGQGLEWMGVIDPSDTYPNYNKKFKGRVTMTTDTSTSTAYMELRSLRSDDTAVYYCARNGDSDYYSGMDYWGQGTTVTVSS VL: EIVLTQSPDFQSVTPKEKVTITCRTSQSIGTNIHWYQQKPDQSPKLLIKYASESISGVPSRFSGSGSGTDFTLTINSLEAEDAATYYCQQSNTWPFTFGGGTKVEIK
